Test results taken from patent US20050107584A1.

Experiments:
[1] = target: human anti-β2GPI mAb G-3; test: cell-based or functional assay
[2] = target: human anti-β2GPI mAb G-3; test: competition ELISA, β2GPI-coated plates, 10 µM peptide
[3] = target: human anti-β2GPI mAb ILA-1; test: as above
[4] = target: human anti-β2GPI mAb G-3; test: cyto-ELISA on HUVEC coated with 10 µg/ml β2GPI, 10 µM peptide
[5] = target: human anti-β2GPI mAb ILA-1; test: cell-based or functional assay
[6] = target: human anti-β2GPI mAb ILA-1; test: cyto-ELISA on HUVEC coated with 10 µg/ml β2GPI, 10 µM peptide
[7] = target: human anti-β2GPI mAb ILA-1; test: competition ELISA, mAb 10 µg/ml preincubated with peptide, β2GPI-coated plates, 10 µM peptide
[8] = target: human anti-β2GPI mAb ILA-3; test: cell-based or functional assay
[9] = target: human anti-β2GPI mAb ILA-3; test: competition ELISA, β2GPI-coated plates, 10 µM peptide
[10] = target: human anti-β2GPI mAb ILA-3; test: cyto-ELISA on HUVEC coated with 10 µg/ml β2GPI, 10 µM peptide

Binder	% inhibition of adhesion of U937 monocyte cells to HUVEC [1] [%]	E-selectin expression by HUVEC (ELISA O.D.) [1] [O.D.]	ICAM-1 expression by HUVEC (ELISA O.D.) [1] [O.D.]	VCAM-1 expression by HUVEC (ELISA O.D.) [1] [O.D.]	% inhibition of G-3 mAb binding to β2GPI [2] [%]	% inhibition of ILA-1 mAb binding to β2GPI [3] [%]	% inhibition of G-3 mAb binding to HUVEC [4] [%]	% inhibition of adhesion of U937 monocyte cells to HUVEC [5] [%]	E-selectin expression by HUVEC (ELISA O.D.) [5] [O.D.]	ICAM-1 expression by HUVEC (ELISA O.D.) [5] [O.D.]	VCAM-1 expression by HUVEC (ELISA O.D.) [5] [O.D.]	% inhibition of ILA-1 mAb binding to HUVEC [6] [%]	% inhibition of ILA-1 mAb binding to β2GPI [7] [%]	% inhibition of adhesion of U937 monocyte cells to HUVEC [8] [%]	E-selectin expression by HUVEC (ELISA O.D.) [8] [O.D.]	% inhibition of ILA-3 mAb binding to β2GPI [9] [%]	% inhibition of ILA-3 mAb binding to HUVEC [10] [%]
CATLRVYKGG [synthetic peptide C (monomer), Cys Ala Thr Leu Arg Val Tyr Lys Gly Gly]	92	0.215	0.186	0.174	98	11	92	–	–	–	–	–	–	–	–	–	–
NTLKTPRVGG [synthetic peptide A (monomer), Asn Thr Leu Lys Thr Pro Arg Val Gly Gly]	–	–	–	–	–	–	–	84	0.239	0.204	0.252	95	97	–	–	–	–
KDKATFGTHDG [synthetic peptide B (monomer), Lys Asp Lys Ala Thr Phe Gly Thr His Asp Gly]	–	–	–	–	–	10	–	–	–	–	–	–	–	95	0.211	77	72
